Measured values from the supplement of paper PMC6757056.
± gives the standard deviation of the averaged measurements.

B1: library; a variant is named by its letters at N, in order (parent)
chain: GCUGUCACCGGUGCUUGGUACGUUAUAUUCAGCCGGUCUGAUGAGUCUNNNNNNAGACGAAACAGC

Experiments:
(6R,S)-folinic acid [1] = variants of: B1; assay: FACS-Seq fitted mean relative fluorescence mCherry/BFP without ligand (log10 relative fluorescence); HEK293T overexpressing SLC46A1; higher = higher reporter protein expression; settings: without (6R,S)-folinic acid; ligand present: no
Outline: (§1)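 Genomic DNA from 6 mCherry/BFP sort bins was PCR-amplified, barcoded and sequenced on MiSeq. The sorted cells were enriched HEK293T libraries, lentivirally transduced with a ribozyme-switch mCherry reporter and an EF1α-BFP marker, incubated with or without ligand for 48 h. Fluorescence derives from a normal fit to the bin counts. The fit was on log10(mCherry/BFP), and means were scaled to five spiked-in control ribozymes.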

(6R,S)-folinic acid [2] = variants of: B1; assay: normalized RNA/DNA level without ligand (relative to sTRSVctl = 100) (log10 (% of sTRSVctl)); HEK293T overexpressing SLC46A1; higher = less ribozyme self-cleavage, higher mRNA level; settings: without (6R,S)-folinic acid; ligand present: no
Experimental: (§2)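 Hammerhead (sTRSV) ribozyme switch libraries with a ligand aptamer grafted on stem I and a randomized N4-6 loop II, cloned into the 3' UTR of mCherry and transiently transfected into HEK293T cells; RNA-Seq 72 h post transfection with ligand added 1 h before transfection; RNA read count / plasmid DNA read count normalized to the non-cleaving sTRSVctl (x100), log10; sequences with >100 DNA reads. FACS-Seq: lentiviral library sorted into 6 bins after 48 h ligand, log-normal fit mean of mCherry/BFP scaled to controls. Printed sequences are partial switch sequences.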

(6R,S)-folinic acid [3] = variants of: B1; assay: FACS-Seq fitted mean relative fluorescence mCherry/BFP with ligand (log10 relative fluorescence); HEK293T overexpressing SLC46A1; ligand concentration (+) FACS-Seq: 6 mM; higher = higher reporter protein expression; settings: with (6R,S)-folinic acid; ligand present: yes
Outline: as §1

(6R,S)-folinic acid [4] = variants of: B1; assay: normalized RNA/DNA level with ligand (relative to sTRSVctl = 100) (log10 (% of sTRSVctl)); HEK293T overexpressing SLC46A1; ligand concentration (+) RNA-Seq: 6 mM; higher = less ribozyme self-cleavage, higher mRNA level; settings: with (6R,S)-folinic acid; ligand present: yes
Experimental: as §2

Variant | FACS-Seq fitted mean (log10) ((6R,S)-folinic acid [1]) | normalized RNA/DNA level without ligand (log10) ((6R,S)-folinic acid [2]) | FACS-Seq fitted mean (log10) ((6R,S)-folinic acid [3]) | normalized RNA/DNA level with ligand (log10) ((6R,S)-folinic acid [4])
UAUUUG | 0.00681 ± 0.018 | 1.82 ± 0.02 | 0.373 ± 0.0088 | 1.976 ± 0.017
CCACAA | 0.496 ± 0.0082 | 1.969 ± 0.0044 | 0.422 ± 0.22 | 1.96 ± 0.016
GCAAAA | 0.327 ± 0.023 | 1.989 ± 0.0033 | 0.174 ± 0.032 | 2 ± 0.051
AAUACU | 0.3 ± 0.014 | 1.995 ± 0.017 | 0.384 ± 0.13 | 1.99 ± 0.026
AAUACC | 0.72 ± 0.071 | 2.028 ± 0.004 | 0.469 ± 0.062 | 2.03 ± 0.031
AAUGUC | -0.0892 ± 0.053 | 2.075 ± 0.01 | -0.24 ± 0.095 | 2.037 ± 0.0021
AAUUGU | 0.0241 ± 0.064 | 1.949 ± 0.019 | 0.334 ± 0.097 | 1.98 ± 0.032
AAUUGA | 0.309 ± 0.021 | 1.966 ± 0.0098 | 0.358 ± 0.11 | 2 ± 0.0091
AAUUGG | 0.112 ± 0.046 | 1.93 ± 0.024 | 0.122 ± 0.064 | 2 ± 0.022
AAGUUG | 0.479 ± 0.061 | 1.914 ± 0.013 | 0.582 ± 0.24 | 2.02 ± 0.054
AAGUUA | 0.382 ± 0.14 | 1.973 ± 0.0048 | 0.443 ± 0.016 | 2.01 ± 0.031
ACACAU | 0.23 ± 0.019 | 1.965 ± 0.0028 | 0.348 ± 0.25 | 2 ± 0.043
GCACAA | -0.45 ± 0.18 | 1.9848 ± 8e-05 | -1.15 ± 0.17 | 2 ± 0.039
GCACAC | -0.179 ± 0.1 | 1.966 ± 0.0048 | -0.0397 ± 0.2 | 2 ± 0.037
GAUGGC | 0.227 ± 0.13 | 1.967 ± 0.019 | 0.542 ± 0.2 | 2.01 ± 0.021
GAUGGU | 0.536 ± 0.091 | 2.004 ± 0.0039 | 0.622 ± 0.045 | 2.02 ± 0.049
GAUGCG | 0.444 ± 0.16 | 1.941 ± 0.011 | 0.693 ± 0.15 | 2.02 ± 0.07
GAUGCA | 0.5601 ± 0.0038 | 2.009 ± 0.0054 | 0.5189 ± 0.004 | 2.04 ± 0.035
